B1: HIS-SMYD3-FL (natural protein, human, UniProt Q9H7B4 1-428, looked up)
chain: MEPLKVEKFATAKRGNGLRAVTPLRPGELLFRSDPLAYTVCKGSRGVVCDRCLLGKEKLMRCSQCRVAKYCSAKCQKKAWPDHKRECKCLKSCKPRYPPDSVRLLGRVVFKLMDGAPSESEKLYSFYDLESNINKLTEDKKEGLRQLVMTFQHFMREEIQDASQLPPAFDLFEAFAKVICNSFTICNAEMQEVGVGLYPSISLLNHSCDPNCSIVFNGPHLLLRAVRDIEVGEELTICYLDMLMTSEERRKQLRDQYCFECDCFRCQTQDKDADMLTGDEQVWKEVQESLKKIEELKAHWKWEQVLAMCQAIISSNSERLPDINIYQLKVLDCAMDACINLGLLEEALFYGTRTMEPYRIFFPGSHPVRGVQVMKVGKLQLHQGMFPQAMKNLRLAFDIMRVTHGREHSLIEDLILLLEECDANIRAS
notes: SMYD3, human, full length (constructs count to residue 428); also called HIS-SMYD3-FL (full length); source: recombinant human protein
B2: HIS-SMYD3-C-term(236–428) (domain or fragment, human, UniProt Q9H7B4 236-428, looked up)
chain: TICYLDMLMTSEERRKQLRDQYCFECDCFRCQTQDKDADMLTGDEQVWKEVQESLKKIEELKAHWKWEQVLAMCQAIISSNSERLPDINIYQLKVLDCAMDACINLGLLEEALFYGTRTMEPYRIFFPGSHPVRGVQVMKVGKLQLHQGMFPQAMKNLRLAFDIMRVTHGREHSLIEDLILLLEECDANIRAS
notes: SMYD3, human, residues 236-428, comprises the CT domain; source: recombinant human protein
B3: HIS-SMYD3-N-term(1–235) (domain or fragment, human, UniProt Q9H7B4 1-235, looked up)
chain: MEPLKVEKFATAKRGNGLRAVTPLRPGELLFRSDPLAYTVCKGSRGVVCDRCLLGKEKLMRCSQCRVAKYCSAKCQKKAWPDHKRECKCLKSCKPRYPPDSVRLLGRVVFKLMDGAPSESEKLYSFYDLESNINKLTEDKKEGLRQLVMTFQHFMREEIQDASQLPPAFDLFEAFAKVICNSFTICNAEMQEVGVGLYPSISLLNHSCDPNCSIVFNGPHLLLRAVRDIEVGEEL
notes: SMYD3, human, residues 1-235, comprises the SET domain; source: recombinant human protein

The values below come from PMC9039736, “Identifying novel SMYD3 interactors on the trail of cancer hallmarks” (Computational and Structural Biotechnology Journal, 2022).

For the assay, the target named is T1, GST-BRCA2(1338–1781) (human, UniProt P51587 1338-1781).
T1 construct: one of nine GST fusion proteins spanning the entire coding region of BRCA2; source: recombinant GST fusion protein
T1 sequence (P51587 1338-1781): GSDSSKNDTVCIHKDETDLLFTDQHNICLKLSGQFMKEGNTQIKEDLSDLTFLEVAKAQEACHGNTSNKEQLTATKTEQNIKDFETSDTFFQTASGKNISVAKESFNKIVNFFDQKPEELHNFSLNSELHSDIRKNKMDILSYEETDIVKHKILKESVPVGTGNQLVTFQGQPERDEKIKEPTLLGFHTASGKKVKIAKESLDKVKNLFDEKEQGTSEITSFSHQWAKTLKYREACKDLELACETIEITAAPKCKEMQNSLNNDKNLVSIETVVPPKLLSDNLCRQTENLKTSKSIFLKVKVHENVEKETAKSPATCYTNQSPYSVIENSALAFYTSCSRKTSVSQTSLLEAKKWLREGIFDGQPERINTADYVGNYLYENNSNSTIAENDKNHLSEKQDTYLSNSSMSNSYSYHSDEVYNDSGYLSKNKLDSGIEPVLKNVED
Description: pull-down; 200 ng HIS-SMYD3 construct with 500 ng GST-BRCA2(1338-1781), 1 h at 4 °C; precipitated by Dynabeads HIS-Tag Isolation and Pulldown; washed in buffer A (20 mM Tris-HCl pH 8, 150 mM KCl, 5 mM MgCl2, 0.2 mM EDTA, 10% glycerol, 0.1% NP-40, 1 mM DTT); immunoblot anti-GST and anti-HIS. The note with it: both partners purified. (In general: Immunoblotting shows a protein as a band on a membrane.)
Take B1: the binding result was “binds”.
As for B2, the binding result is given as “binds”.
For B3 the value was “binds”.
